Test results published in paper PMC4785722 (Journal of molecular biology, 2009).

Target: the molecule itself
Assay: native MS

B1: bacteriophage MS2 coat protein dimer (natural protein)
chain: ASNFTQFVLVDNGGTGDVTVAPSNFANGVAEWISSNSRSQAYKVTCSVRQSSAQNRKYTIKVEVPKVATQTVGGVELPVAAWRSYLNMELTIPIFATNSDCELIVKAMQGLLKDGNPIPSAIAANSGIY
stoichiometry N: 10 CP2 dimers
